Experimental data published in the supplement of paper PMC11246515.
± gives the standard deviation of the averaged measurements.

Assay: total protein half-life in vivo (active degradation + dilution); higher = more stable protein
[1] = E. coli NCM3722 delta-clpP delta-lon delta-hslV, growth: N-lim chemostat, doubling time 6 h
[2] = E. coli NCM3722 delta-clpP, growth: N-lim chemostat, doubling time 6 h
[3] = E. coli NCM3722 delta-hslV, growth: N-lim chemostat, doubling time 6 h
[4] = E. coli NCM3722 delta-lon, growth: N-lim chemostat, doubling time 6 h
[5] = E. coli NCM3722 delta-smpB, growth: N-lim chemostat, doubling time 6 h
[6] = wild type E. coli NCM3722, growth: C-lim chemostat, doubling time 3 h
[7] = wild type E. coli NCM3722, growth: C-lim chemostat, doubling time 6 h
[8] = wild type E. coli NCM3722, growth: C-lim chemostat, doubling time 12 h
[9] = wild type E. coli NCM3722, growth: N-lim chemostat, doubling time 6 h
[10] = wild type E. coli NCM3722, growth: P-lim chemostat, doubling time 12 h
[11] = wild type E. coli NCM3722, growth: P-lim chemostat, doubling time 6 h
[12] = wild type E. coli NCM3722, growth: N-lim chemostat, doubling time 12 h

Sequence	total protein half-life in vivo [1] [h]	total protein half-life in vivo [2] [h]	total protein half-life in vivo [3] [h]	total protein half-life in vivo [4] [h]	total protein half-life in vivo [5] [h]	total protein half-life in vivo [6] [h]	total protein half-life in vivo [7] [h]	total protein half-life in vivo [8] [h]	total protein half-life in vivo [9] [h]	total protein half-life in vivo [10] [h]	total protein half-life in vivo [11] [h]	total protein half-life in vivo [12] [h]
MIEKIWSGESPLWRLLLPLSWLYGLVSGAIRLCYKLKLKRAWRAPVPVVVVGNLTAGGNGKTPVVVWLVEQLQQRGIRVGVVSRGYGGKAESYPLLLSADTTTAQAGDEPVLIYQRTDAPVAVSPVRSDAVKAILAQHPDVQIIVTDDGLQHYRLARDVEIVVIDGVRRFGNGWWLPAGPMRERAGRLKSVDAVIVNGGVPRSGEIPMHLLPGQAVNLRTGTRCDVAQLEHVVAMAGIGHPPRFFATLKMCGVQPEKCVPLADHQSLNHADVSALVSAGQTLVMTEKDAVKCRAFAEENWWYLPVDAQLSGDEPAKLLTQLTLLASGN	6.05 ± 0.42	6.49	6.52 ± 1.2	6.39 ± 0.34	5.71 ± 0.64	3.11 ± 0.41	7.25 ± 0.18	8.44	5.52	13.8 ± 2	–	–
MIENRPWLTIFSHTMLILGIAVILFPLYVAFVAATLDKQAVYAAPMTLIPGTHLLENIHNIWVNGVGTNSAPFWRMLLNSFVMAFSITLGKITVSMLSAFAIVWFRFPLRNLFFWMIFITLMLPVEVRIFPTVEVIANLQMLDSYAGLTLPLMASATATFLFRQFFMTLPDELVEAARIDGASPMRFFCDIVFPLSKTNLAALFVITFIYGWNQYLWPLLIITDVDLGTTVAGIKGMIATGEGTTEWNSVMVAMLLTLIPPVVIVLVMQRAFVRGLVDSEK	–	–	–	–	–	–	–	14.5	–	12.6 ± 2.1	6.34	–
MIEQFFRPDSVEQALELKRRYQDEAVWFAGGSKLNATPTRTDKKIAISLQDLELDWVDWDNGALRIGAMSRLQPLRDARFIPAALREALGFVYSRHVRNQSTIGGEIAARQEESVLLPVLLALDAELVFGNGETLSIEDYLACPCDRLLTEIIIKDPYRTCATRKISRSQAGLTVVTAAVAMTDHDGMRIALDGVASKALRLHDVEKQNLEGNALEQAVANAIFPQEDLRGSVAYKRYITGVLVADLYADCQQAGEEAV	–	–	–	0.974	–	–	–	–	–	–	–	–
MIEWIIRRSVANRFLVLMGALFLSIWGTWTIINTPVDALPDLSDVQVIIKTSYPGQAPQIVENQVTYPLTTTMLSVPGAKTVRGFSQFGDSYVYVIFEDGTDPYWARSRVLEYLNQVQGKLPAGVSAELGPDATGVGWIYEYALVDRSGKHDLADLRSLQDWFLKYELKTIPDVAEVASVGGVVKEYQVVIDPQRLAQYGISLAEVKSALDASNQEAGGSSIELAEAEYMVRASGYLQTLDDFNHIVLKASENGVPVYLRDVAKVQIGPEMRRGIAELNGEGEVAGGVVILRSGKNAREVIAAVKDKLETLKSSLPEGVEIVTTYDRSQLIDRAIDNLSGKLLEEFIVVAVVCALFLWHVRSALVAIISLPLGLCIAFIVMHFQGLNANIMSLGGIAIAVGAMVDAAIVMIENAHKRLEEWQHQHPDATLDNKTRWQVITDASVEVGPALFISLLIITLSFIPIFTLEGQEGRLFGPLAFTKTYAMAGAALLAIVVIPILMGYWIRGKIPPESSNPLNRFLIRVYHPLLLKVLHWPKTTLLVAALSVLTVLWPLNKVGGEFLPQINEGDLLYMPSTLPGISAAEAASMLQKTDKLIMSVPEVARVFGKTGKAETATDSAPLEMVETTIQLKPQEQWRPGMTMDKIIEELDNTVRLPGLANLWVPPIRNRIDMLSTGIKSPIGIKVSGTVLADIDAMAEQIEEVARTVPGVASALAERLEGGRYINVEINREKAARYGMTVADVQLFVTSAVGGAMVGETVEGIARYPINLRYPQSWRDSPQALRQLPILTPMKQQITLADVADIKVSTGPSMLKTENARPTSWIYIDARDRDMVSVVHDLQKAIAEKVQLKPGTSVAFSGQFELLERANHKLKLMVPMTLMIIFVLLYLAFRRVGEALLIISSVPFALVGGIWLLWWMGFHLSVATGTGFIALAGVAAEFGVVMLMYLRHAIEAVPSLNNPQTFSEQKLDEALYHGAVLRVRPKAMTVAVIIAGLLPILWGTGAGSEVMSRIAAPMIGGMITAPLLSLFIIPAAYKLMWLHRHRVRK	–	–	–	> 8	6.09	–	7.07	> 16	5.97 ± 0.71	12.7 ± 0.39	6.31 ± 0.89	12.6 ± 3.8
MIEWQDLHHSELSVSQLYALLQLRCAVFVVEQNCPYQDIDGDDLTGDNRHILGWKNDELVAYARILKSDDDLEPVVIGRVIVSEALRGEKVGQQLMSKTLETCTHHWPDKPVYLGAQAHLQNFYQSFGFIPVTEVYEEDGIPHIGMAREVIQA [P0AEH3]	4.51 ± 0.43	–	3.93 ± 1.4	3.58 ± 0.13	2.23 ± 0.14	2.35 ± 0.064	4.3 ± 0.27	7.04 ± 0.82	2.68 ± 0.086	9.98 ± 1.5	4.54 ± 0.38	3.85 ± 0.064
MIFLMTKDSFLLQGFWQLKDNHEMIKINSLSEIKKVGNKPFKVIIDTYHNHILDEEAIKFLEKLDAERIIVLAPYHISKLKAKAPIYFVSRKESIKNLLEITYGKHLPHKNSQLCFSHNQFKIMQLILKNKNESNITSTLNISQQTLKIQKFNIMYKLKLRRMSDIVTLGITSYF	4.62 ± 0.1	3.05 ± 0.11	1.91 ± 0.33	1.03 ± 0.022	3.52 ± 0.093	–	–	–	2.29 ± 0.07	6.16 ± 0.74	2.34 ± 0.054	3.82 ± 0.15
MIFTLRPYQQEAVDATLNHFRRHKTPAVIVLPTGAGKSLVIAELARLARGRVLVLAHVKELVAQNHAKYQALGLEADIFAAGLKRKESHGKVVFGSVQSVARNLDAFQGEFSLLIVDECHRIGDDEESQYQQILTHLTKVNPHLRLLGLTATPFRLGKGWIYQFHYHGMVRGDEKALFRDCIYELPLRYMIKHGYLTPPERLDMPVVQYDFSRLQAQSNGLFSEADLNRELKKQQRITPHIISQIMEFAATRKGVMIFAATVEHAKEIVGLLPAEDAALITGDTPGAERDVLIENFKAQRFRYLVNVAVLTTGFDAPHVDLIAILRPTESVSLYQQIVGRGLRLAPGKTDCLILDYAGNPHDLYAPEVGTPKGKSDNVPVQVFCPACGFANTFWGKTTADGTLIEHFGRRCQGWFEDDDGHREQCDFRFRFKNCPQCNAENDIAARRCRECDTVLVDPDDMLKAALRLKDALVLRCSGMSLQHGHDEKGEWLKITYYDEDGADVSERFRLQTPAQRTAFEQLFIRPHTRTPGIPLRWITAADILAQQALLRHPDFVVARMKGQYWQVREKVFDYEGRFRLAHELRG	5.4 ± 0.095	4.39 ± 0.49	3.55 ± 0.12	3.9 ± 0.26	3.3 ± 0.36	2.79 ± 0.44	4.38 ± 0.35	7.46 ± 0.87	3.38 ± 0.3	10.1 ± 0.45	5.37 ± 0.26	5.32 ± 0.49
MIGRISRFMTRFVSRWLPDPLIFAMLLTLLTFVIALWLTPQTPISMVKMWGDGFWNLLAFGMQMALIIVTGHALASSAPVKSLLRTAASAAKTPVQGVMLVTFFGSVACVINWGFGLVVGAMFAREVARRVPGSDYPLLIACAYIGFLTWGGGFSGSMPLLAATPGNPVEHIAGLIPVGDTLFSGFNIFITVALIVVMPFITRMMMPKPSDVVSIDPKLLMEEADFQKQLPKDAPPSERLEESRILTLIIGALGIAYLAMYFSEHGFNITINTVNLMFMIAGLLLHKTPMAYMRAISAAARSTAGILVQFPFYAGIQLMMEHSGLGGLITEFFINVANKDTFPVMTFFSSALINFAVPSGGGHWVIQGPFVIPAAQALGADLGKSVMAIAYGEQWMNMAQPFWALPALAIAGLGVRDIMGYCITALLFSGVIFVIGLTLF	–	5.89	–	5.21	5.88	–	–	–	5.5	–	–	15.3
MIIIRYLVRETLKSQLAILFILLLIFFCQKLVRILGAAVDGDIPANLVLSLLGLGVPEMAQLILPLSLFLGLLMTLGKLYTESEITVMHACGLSKAVLVKAAMILAVFTAIVAAVNVMWAGPWSSRHQDEVLAEAKANPGMAALAQGQFQQATNGSSVLFIESVDGSDFKDVFLAQIRPKGNARPSVVVADSGHLTQLRDGSQVVTLNQGTRFEGTALLRDFRITDFQDYQAIIGHQAVALDPNDTDQMDMRTLWNTDTDRARAELNWRITLVFTVFMMALMVVPLSVVNPRQGRVLSMLPAMLLYLLFFLIQTSLKSNGGKGKLDPTLWMWTVNLIYLALAIVLNLWDTVPVRRLRASFSRKGAV [P0AF98]	6.78 ± 0.092	–	–	6.05 ± 0.35	6.02 ± 0.49	3.17 ± 0.17	5.94 ± 0.35	10.4	5.9587 ± 0.0048	12.6 ± 0.65	6.85 ± 0.98	12.6 ± 0.32
MIKFSATLLATLIAASVNAATVDLRIMETTDLHSNMMDFDYYKDTATEKFGLVRTASLINDARNEVKNSVLVDNGDLIQGSPLADYMSAKGLKAGDIHPVYKALNTLDYTVGTLGNHEFNYGLDYLKNALAGAKFPYVNANVIDARTKQPMFTPYLIKDTEVVDKDGKKQTLKIGYIGVVPPQIMGWDKANLSGKVTVNDITETVRKYVPEMREKGADVVVVLAHSGLSADPYKVMAENSVYYLSEIPGVNAIMFGHAHAVFPGKDFADIEGADIAKGTLNGVPAVMPGMWGDHLGVVDLQLSNDSGKWQVTQAKAEARPIYDIANKKSLAAEDSKLVETLKADHDATRQFVSKPIGKSADNMYSYLALVQDDPTVQVVNNAQKAYVEHYIQGDPDLAKLPVLSAAAPFKVGGRKNDPASYVEVEKGQLTFRNAADLYLYPNTLIVVKASGKEVKEWLECSAGQFNQIDPNSTKPQSLINWDGFRTYNFDVIDGVNYQIDVTQPARYDGECQMINANAERIKNLTFNGKPIDPNAMFLVATNNYRAYGGKFAGTGDSHIAFASPDENRSVLAAWIADESKRAGEIHPAADNNWRLAPIAGDKKLDIRFETSPSDKAAAFIKEKGQYPMNKVATDDIGFAIYQVDLSK	6.84 ± 0.98	6.56 ± 1.5	6.23 ± 0.19	7.14 ± 0.34	5.91 ± 0.18	3.34 ± 0.07	5.93 ± 0.14	12.9 ± 2.1	6.327 ± 0.037	11.212 ± 0.0065	5.23 ± 0.31	12.2 ± 1.1
MIKKASLLTACSVTAFSAWAQDTSPDTLVVTANRFEQPRSTVLAPTTVVTRQDIDRWQSTSVNDVLRRLPGVDITQNGGSGQLSSIFIRGTNASHVLVLIDGVRLNLAGVSGSADLSQFPIALVQRVEYIRGPRSAVYGSDAIGGVVNIITTRDEPGTEISAGWGSNSYQNYDVSTQQQLGDKTRVTLLGDYAHTHGYDVVAYGNTGTQAQTDNDGFLSKTLYGALEHNFTDAWSGFVRGYGYDNRTNYDAYYSPGSPLLDTRKLYSQSWDAGLRYNGELIKSQLITSYSHSKDYNYDPHYGRYDSSATLDEMKQYTVQWANNVIVGHGSIGAGVDWQKQTTTPGTGYVEDGYDQRNTGIYLTGLQQVGDFTFEGAARSDDNSQFGRHGTWQTSAGWEFIEGYRFIASYGTSYKAPNLGQLYGFYGNPNLDPEKSKQWEGAFEGLTAGVNWRISGYRNDVSDLIDYDDHTLKYYNEGKARIKGVEATANFDTGPLTHTVSYDYVDARNAITDTPLLRRAKQQVKYQLDWQLYDFDWGITYQYLGTRYDKDYSSYPYQTVKMGGVSLWDLAVAYPVTSHLTVRGKIANLFDKDYETVYGYQTAGREYTLSGSYTF	6.44 ± 0.73	6.76 ± 0.089	6.84 ± 0.059	6.49 ± 0.47	6.07 ± 0.27	3.26 ± 0.15	6.12 ± 0.2	12.3 ± 0.2	6.29 ± 0.28	12.8 ± 0.14	6.23 ± 0.18	13.5 ± 1.7
MIKKIFALPVIEQISPVLSRRKLDELDLIVVDHPQVKASFALQGAHLLSWKPAGEEEVLWLSNNTPFKNGVAIRGGVPVCWPWFGPAAQQGLPAHGFARNLPWTLKSHHEDADGVALTFELTQSEETKKFWPHDFTLLAHFRVGKTCEIDLESHGEFETTSALHTYFNVGDIAKVSVSGLGDRFIDKVNDAKENVLTDGIQTFPDRTDRVYLNPQDCSVINDEALNRIIAVGHQHHLNVVGWNPGPALSISMGDMPDDGYKTFVCVETAYASETQKVTKEKPAHLAQSIRVAKR	5.78 ± 0.46	5.24 ± 0.6	6.17 ± 1.1	5.11 ± 0.53	5.67 ± 0.29	–	–	13 ± 1.6	5.42 ± 0.3	12.9 ± 1.8	5.72 ± 0.72	13.7 ± 2.5
